Results on two molecules are retold here after US20090202556A1 (Kyowa Kirin, published 2009).

Test [1] deals with T1, human CLDN4 (Claudin-4) expressed by human cancer cell lines (Capan-2, HPAF-II, MCF7, HT-29, SW480, 22Rv1, DU … (human, UniProt O14493 1-209)).
T1 construct: Endogenous protein on cell lines; MCF7 is said to express both CLDN3 and CLDN4; also called CLDN4 expressed in breast cancer cells, colorectal cancer cells and prostate cancer cells
T1 sequence: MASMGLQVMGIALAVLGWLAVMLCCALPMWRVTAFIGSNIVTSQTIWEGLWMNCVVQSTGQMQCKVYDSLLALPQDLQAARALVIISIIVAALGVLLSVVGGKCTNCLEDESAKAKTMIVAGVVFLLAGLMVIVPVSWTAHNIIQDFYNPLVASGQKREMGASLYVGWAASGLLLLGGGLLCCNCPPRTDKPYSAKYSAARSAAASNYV
Description: FCM on live Capan-2 and HPAF-II cells, 8.6 µg/ml. The method, then:
Human pancreatic cancer cell lines Capan-2 and HPAF-II human lymphoma cell line Daudi (ATCC CCL-213), human breast cancer cell line MCF7 (ATCC HTB-22), human colorectal cancer cell lines HT-29 (ATCC HTB-38) and SW480 (ATCC CCL-228) and human prostate cancer cell line s 22Rv1 (ATCC CRL-2505), DU 145 (ATCC HTB-81) and PC-3 (ATCC CRL-1435) were cultured for 3 to 4 days, and adhered cells were peeled off using 0.02% EDTA solution (manufactured by Nacalai Tesque) to recover the cells. The thus recovered cells were washed with PBS and, in order to prevent nonspecific adsorption of antibodies, blocked at ice temperature for 30 minutes using BSA-PBS. The cells were dispensed at 1 to 5×10⁵ cells/100 μl BSA-PBS into a 96-well U bottom plate and centrifuged (1,500 rpm, 5 minutes), the supernatant was removed and then a mouse anti-serum to be immunized, a culture supernatant of hybridoma KM3900 (8.6 μg/ml), anti-CLDN4 monoclonal antibodies KM3900 and KM3907 diluted to 5 μg/ml or a mouse IgG2a isotype control (manufactured by DAKO) was dispensed as the primary antibody at 100 μl/well and allowed to react at ice temperature for 60 minutes. […] After the reaction, the cells were washed once with BSA-PBS and suspended in PBS, and the fluorescent intensity was measured by FCM (manufactured by Beckman Coulter). […]

For test [2], the target named is T1, human CLDN4 (Claudin-4) expressed by …. Nature of the test: FCM on live cancer cell lines, 5 µg/ml. The method, then: Human pancreatic cancer cell lines Capan-2 and HPAF-II human lymphoma cell line Daudi (ATCC CCL-213), human breast cancer cell line MCF7 (ATCC HTB-22), human colorectal cancer cell lines HT-29 (ATCC HTB-38) and SW480 (ATCC CCL-228) and human prostate cancer cell line s 22Rv1 (ATCC CRL-2505), DU 145 (ATCC HTB-81) and PC-3 (ATCC CRL-1435) were cultured for 3 to 4 days, and adhered cells were peeled off using 0.02% EDTA solution (manufactured by Nacalai Tesque) to recover the cells. The thus recovered cells were washed with PBS and, in order to prevent nonspecific adsorption of antibodies, blocked at ice temperature for 30 minutes using BSA-PBS. The cells were dispensed at 1 to 5×10⁵ cells/100 μl BSA-PBS into a 96-well U bottom plate and centrifuged (1,500 rpm, 5 minutes), the supernatant was removed and then a mouse anti-serum to be immunized, a culture supernatant of hybridoma KM3900 (8.6 μg/ml), anti-CLDN4 monoclonal antibodies KM3900 and KM3907 diluted to 5 μg/ml or a mouse IgG2a isotype control (manufactured by DAKO) was dispensed as the primary antibody at 100 μl/well and allowed to react at ice temperature for 60 minutes. […] After the reaction, the cells were washed once with BSA-PBS and suspended in PBS, and the fluorescent intensity was measured by FCM (manufactured by Beckman Coulter).

B1: anti-CLDN4 monoclonal antibody KM3900 produced by hybridoma KM3900 (FERM BP-10751) (antibody, V domains shown)
VH: EVQLQQSGPELVKPGASVKISCKASGYTFTDYYMNWVKQSHGKSLEWIGDVVPNNGVPTYNQKFKGKATLTVDKSSSTAYMELRSLTSEDSAVYYCARPHYYYAGRSGAMDYWGQGTSVTVSS
VL: QIVLTQSPAIMSASLGERVTMTCTASSTVSSTYLHWYQQKPGSSPKLWIYSTSNLASGVPARFSGSGSGTSYSLTISSMEAEDAATYYCHQYHRSPPTFGGGTKLEIK
notes: Used as hybridoma culture supernatant (8.6 µg/ml) or purified antibody (5 µg/ml); also called anti-CLDN4 mouse antibody KM3900
For B1, the binding result in test [1] is “binds”.

B2: anti-CLDN4 monoclonal antibody KM3907 produced by hybridoma KM3907 (FERM BP-10885) (antibody, mouse IgG2a, V domains shown)
VH: QVQLQQSGPELVKPGASVKISCKASGYAISTSWMNWVKQRPGKGLEWIGRINPGDGNTNYNGKFMAKATLTADKPSSTAYMQLSSLTSEDSAVYFCTRGDRWSGAMDYWGQGTSVTVSS
VL: GNVLTQSPAIMSASPGEKVTMTCRASSSVSSSYLHWYQQKSGASPKLWIYSTSNLASGVPVRFSGSGSGTSYSLTISSVEAEDAATYYCQQYSGFPLTFGAGTKLELK
Regarding B2, in test [2], the binding result was “binds”.
